We go through 141 substances from the supplement of paper PMC12042874.

± gives the uncertainty stated by the source.

A short description of this data set: amyloid nucleation score (Sup35N fusion, yeast selection) (log enrichment); library NNK2; higher = more nucleation; inactive = no reads after selection. An outline of the steps:
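Nucleation score is defined as the DiMSum log enrichment of output over input reads, with centring on the mode score of non-aggregating sequences. A minimum of 100 input reads was required for each sequence. Reads came from Illumina sequencing of plasmid inserts from psi-negative yeast expressing Sup35N fused to peptides of 20 random codons, induced with 100 μM copper sulfate for 24 hours and grown 7 days at 30°C on medium lacking adenine and uracil.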

In the case of DSHADAISVAVKVGRWRYND, the amyloid nucleation score is 1.53 ± 0.23.
In the case of SACVWVNICTSASNGDPG it was 7.445 ± 0.039; in that of FFVKTLFEGSLDVSSNSTFF, -0.304 ± 1.1.
To YSLMCQFHSSPISFFLCWLP belongs 8.157 ± 0.071.
For the substance EKIFPLMGVKN, the amyloid nucleation score entry was “inactive”.
In the case of KRVFAKVTVMDHSNSG it was “inactive”; in that of RLNVL, -0.987 ± 0.53.
To DLRLYILNL belongs 6.556 ± 0.055.
To YYFIG belongs 0.673 ± 0.24; to GNNRAY, -0.117 ± 0.74; to LRGLVMRCAFIVKGLGLCEG, 0.979 ± 0.22.
As for INPSWVSCVHFM, the amyloid nucleation score was 0.062 ± 0.74.
In the case of FPHLFKSKNPSRNMNSTSPG it was “inactive”.
In the case of VLNITEIYFVG it was 8.125 ± 0.051; in that of ALIGLWVGKPFPGGMLVLFM, 0.24 ± 0.3; in that of DAFWCYVDTLYMNRPSQ, 0.988 ± 0.29.
AVKCGNGSEF: the amyloid nucleation score is -0.066 ± 0.45.
PRCRVAR: the amyloid nucleation score worked out at 0.305 ± 1.
TRNWRGYVCYSEVIIVVKQE: the amyloid nucleation score was -0.839 ± 0.78.
To NEYGLLYVFIPSSISPLADI belongs -1.5 ± 1.1; to INVAQALLSAPA, 3.81 ± 0.062.
In the case of LYRFSSLLWLSVSSSCDIV it was “inactive”; in that of TMCDSIVIEYGPCIFDSSSS, 4.74 ± 0.056.
In turn, CSRLG returned an amyloid nucleation score of -1.39 ± 1.1.
In the case of FLFNVSGLYIGWSLVPTNLD it was -0.33 ± 0.76; in that of NFVSISMGNIYMSQLGRWTA, 8.33 ± 0.051; in that of NYSYMSMHTSCLSKTPSSRA, -1.42 ± 1.1.
To STVYIVCHGVILRVRMGPWL belongs 2.46 ± 0.12; to MVLVMCPLS, 0.015 ± 0.25; to SSFFLGLPPIREIGPWTTQR, 0.168 ± 0.27.
To LYLVEARVTLYILGPWVVSR belongs 0.927 ± 0.45; to LVYLIGSGNLQRISFPQRRV, 5.51 ± 0.067.
On to RRLFRLVVYFLPNR, for which the amyloid nucleation score result is “inactive”.
In the case of QVVEYN it was -0.047 ± 0.33; in that of SCHWNVTRGRWNTKHNLRPK, 1.06 ± 0.4; in that of THTSLLSLVP, -0.291 ± 0.76.
In the case of YLNLYLYCVNSSNDSYV it was 6.513 ± 0.031; in that of TGGISYLD, “inactive”.
Consider SFGKVYFN, for which the amyloid nucleation score stood at 0.617 ± 0.53.
In the case of RKYTCSFRLFYRGVCFVT it was -1.16 ± 0.76; in that of FSDNTVNTQQVEGIYQIDPN, -0.705 ± 0.46.
In the case of DSSKSMCLICSNCILNFSEM it was 8.698 ± 0.049; in that of DGELVVWFMVMSWWNIKDSK, -0.446 ± 1.
On to ALILVAMSVFLSAGLRVMIK, for which the amyloid nucleation score entry was “inactive”.
Substance GSMVLPIICNKIAYRSCSTI yielded an amyloid nucleation score of -0.828 ± 0.56.
Substance EVHLEVLTNCKKV had an amyloid nucleation score of 5.05 ± 0.051.
To TTLYGNSRFTVCMTKGW belongs -0.271 ± 0.74; to TSAPSKSLLLGVIIIGAFPD, “inactive”.
In the case of GYAYLSLHKA it was 0.342 ± 0.2; in that of IGCSWSKQELVISNLLVFLF, -1.52 ± 0.62; in that of LRCHDGVKLSKSVCECCMYM, 2.37 ± 0.19.
Consider ANLRLYICWGFDKSVINIKS, for which the amyloid nucleation score came to 6.908 ± 0.038.
On to KVTARPFRQC, for which the amyloid nucleation score is 4.997 ± 0.045.
To LTTPGQNLLILWTLSNMFMI belongs “inactive”; to SGLCSCTVACVGFVHFDARV, 5.38 ± 0.084; to NVQRI, -0.399 ± 0.55.
For the substance KAHIAVDGIMA, the amyloid nucleation score stood at 0.117 ± 0.33.
Substance FVIVFVRRSNTFLAPQKVWG yielded an amyloid nucleation score of 1.6 ± 0.14.
In the case of VKTRCVVHCMNNFPGCMIEL it was 6.887 ± 0.065; in that of YFVVCAHPESYSIINRFATV, 6.311 ± 0.057.
To RLGIFYKVDLSLVGKVPNST belongs 2.79 ± 0.17.
In the case of VMFLFGGCTDNS it was 0.382 ± 0.8; in that of SSWLYGVYSSYMWMLF, -1.45 ± 1.
Consider AVALYVSDSQDHPGNRNVLV, for which the amyloid nucleation score amounted to 2.45 ± 0.099.
In the case of CVFASNKRMEGVDKKLRVRN it was 0.403 ± 0.62; in that of LENWSNMGENCSTVDRPNLF, -0.4 ± 1.1.
HWLTKISGTTPELYPRERVV: the amyloid nucleation score was found to be 0.071 ± 0.25.
Turning to YISGWYCVNTVSRNNSYRES, the amyloid nucleation score was -1.72 ± 0.49.
To LSRKTYWA belongs 0.894 ± 0.43; to GNLSNSQTIWFRSNTAISLN, 1.98 ± 0.14.
To TGTPYRF belongs 1.11 ± 0.23; to YLKKVQWYRQAYFGA, -0.694 ± 0.28; to IRTLSFMIANSAL, -1.16 ± 1.1.
Turning to SGVLVCVWTRS, the amyloid nucleation score was -1.24 ± 0.49.
In the case of PFGKGKEHIKL it was “inactive”; in that of WYEYCFCGVMLYRTGDCTRR, 3.96 ± 0.086; in that of RTVYRFNVRI, 0.291 ± 0.27.
For WKSLGNSAVVIRLAS, the amyloid nucleation score was -0.453 ± 1.1.
Substance TGLVMVHSTRVPKRLGMLCL gave an amyloid nucleation score of 0.967 ± 0.33.
For the substance DKKLIFRWAITVMIRIPART, the amyloid nucleation score was 1.65 ± 0.48.
TSSLYISMMVLL yielded an amyloid nucleation score of 4.07 ± 0.074.
Consider AIASLTRTFSA, for which the amyloid nucleation score came to 0.167 ± 0.42.
In the case of MGMAHFDSQPLGYILGASMC it was -0.727 ± 0.79.
As to FWHIEMCENSTYHVSLSTGC, the amyloid nucleation score is 4.394 ± 0.04.
In the case of SACLFLDME, the amyloid nucleation score came out at 0.664 ± 0.41.
To GRNVMTKAPYCTCWANVLHS belongs 6.67 ± 0.075; to QFNYHNLNLTNFKSLCASTD, 0.019 ± 0.61; to VIKMSVNNVELVGMDHYSCV, 0.606 ± 0.23.
TLAEFGQQPGRGACMYAVNN: the amyloid nucleation score result is “inactive”.
To HLCHLLRSEHCRNGGSEKSR belongs 1.61 ± 0.29; to LFFFSGRWKVNGGIVDGCGV, 0.166 ± 0.45; to SMNSLSIVYLDYASGAWMDL, -0.127 ± 0.49.
The substance TIENLNLFWF displayed an amyloid nucleation score of 5.73 ± 0.06.
In the case of SHFRLCGGVWSSGLMCHGCF it was 1.61 ± 0.55; in that of SVSYSGDNH, -0.177 ± 1.
For FEYYIDPRK, the amyloid nucleation score is -1.27 ± 0.61.
To YNMCYNG belongs -0.781 ± 1.1.
As for KTIVSYV, the amyloid nucleation score result was “inactive”.
For KYVSCNLLIGWYTLFSFYPF, the amyloid nucleation score is -0.649 ± 0.4.
To EGSNNVVVRDSAVYQVSGEM belongs -0.375 ± 1.1; to RRGHVL, 1.82 ± 0.21; to RHFYRSKMAMVYGFHTAFTG, -0.582 ± 0.34.
In the case of SRNTVLYISLSFLTPYISCC it was 8.221 ± 0.028; in that of MTCCF, -0.877 ± 1.1.
As to CGLWASNSSTFRDFESNESN, the amyloid nucleation score is -0.51 ± 0.63.
In the case of VAWLW it was 0.909 ± 0.21; in that of VMCTC, 0.71 ± 0.48; in that of IHKETGLEIVARRKVHFDGG, 0.524 ± 0.26.
To HRAWSSVCSKYSSTGTRNLI belongs 2.99 ± 0.14.
In turn, SWVTSYERLRLPLNCMSNDQ yielded an amyloid nucleation score of -0.452 ± 0.42.
To LSQARVYLCYFEFSYFVVEP belongs 1.83 ± 0.12.
To ISCGVSLPIANCTMTHIARV belongs -0.23 ± 0.49; to SVKCWVALAPYLGDRKDPVW, 2.94 ± 0.15; to GLMTYFSSVESGEHTDRNLS, -0.732 ± 0.33.
To WHMLHRVDKAISFSLSCCGR belongs 7.81 ± 0.084.
Take QGCPFWYNYVLVYSVSGGIS: the amyloid nucleation score came to 2.36 ± 0.14.
To SACVLCFYQIFFYRVDCTGG belongs 6.414 ± 0.052; to CRYTASASDPDDTGLIRFNA, 3.75 ± 0.073.
For CVMHVRHHYGDI, the amyloid nucleation score entry was “inactive”.
In the case of RIVMLGFVN, the amyloid nucleation score was -1.44 ± 0.54.
In the case of FRCHYFNWNDFALAVSFSKE, the amyloid nucleation score is -0.33 ± 0.38.
Substance YSASQTWCKQPIDCFIRGQN showed an amyloid nucleation score of -0.605 ± 0.41.
In the case of MKRIRLGNQVRCEAANCRGR it was 1.1 ± 0.24.
Regarding RMCWELFT, the amyloid nucleation score was determined as 0.022 ± 0.34.
To RVGACRMVRHYVGTWVQQLL belongs 0.246 ± 1.1; to EIVQFLLHMYGSVREAMVAL, -1.05 ± 0.56; to STMRSWAAC, 4.25 ± 0.091.
In the case of IWRNSANCGASDEAVDSLR it was 0.53 ± 0.56.
In the case of NLVFKPFCEPSVVSV it was 0.099 ± 0.62; in that of TLGPL, “inactive”.
VNGVSMMHKIVLVNR had an amyloid nucleation score of 0.058 ± 1.
Substance YDERTWGTECMCTSCSCADK registered an amyloid nucleation score of 1.24 ± 0.28.
As for LHVMYQTAMRAFAWNVTDLG, the amyloid nucleation score was -0.032 ± 0.8.
With FHHSHANSNVSRGIDIFGAV, the amyloid nucleation score was -0.454 ± 0.32.
Substance RKCSLVAEWTGLLLNSFVHN showed an amyloid nucleation score of 1.19 ± 0.45.
VWTLYYHHIGSAFSTCNRLF: the amyloid nucleation score amounted to 4.5 ± 0.062.
To KSYMARMWYMVRLMLTCLDY belongs 0.741 ± 0.47; to VALRWTIRQWFSDVYPWSWY, 0.802 ± 0.45.
To KILALATRLKIFSSLVYIRS belongs 0.338 ± 0.51; to NFVRRSKSDKPCCYKTHSST, -0.747 ± 0.41; to ILPISVLVDHINWSDPYFIM, 0.035 ± 1.
